Source: patent US20230310432A1 (JULIUS-MAXIMILIANS-UNIVERSITÄT WÜRZBURG, priority 2017, published 2023)

Key:
[1] = tested on: CD8+ T cells expressing a CD19 CAR with 4-1BB costimulation; experiment: Bioluminescence-based cytotoxicity assay, K562/CD19 target cells; type: cell-based, human
Procedure: Cytotoxicity: Target cells were stably transduced with ffluc_GFP and incubated in triplicate wells at 1×10^4 cells/well with effector T cells at an effector to target (E:T) ratio of 5:1. D-luciferin substrate (Biosynth, Staad, Switzerland) was added to the co-culture to a final concentration of 0.15 mg/ml and the decrease in luminescence signal in wells that contained target cells and T-cells was measured using a luminometer (Tecan, Mannedorf, Switzerland). Specific lysis was calculated using the standard formula.
The inventors prepared CD8+ CAR-T cell lines from n=3 healthy donors. In each of the T-cell lines, the inventors enriched CAR-expressing T cells to >90% purity using the EGFRt-transduction marker. The inventors analyzed cytolytic activity of CD8^+ CAR-T cells in a bioluminescence-based cytotoxicity assay using K562 that the inventors had transduced with either CD19 (for testing CD19 CAR-T cells) or ROR1 (for testing ROR1 CAR-T cells) as target cells. Dasatinib was added to the assay medium at the beginning of the assay.
The inventors prepared CD8^+ CAR-T cell lines from n=3 healthy donors. In each of the T-cell lines, the inventors enriched CAR-expressing T cells to >90% purity using the EGFRt-transduction marker. The inventors analyzed cytolytic activity of CD8^+ CAR-T cells in a bioluminescence-based cytotoxicity assay using K562 target cells that the inventors had transduced with CD19.
The CAR-T cell cytolytic activity was analyzed at 1-hour intervals for 10 hours.
The inventors analyzed cytolytic activity of CD8+ CAR-T cells in a bioluminescence-based cytotoxicity assay.
The inventors prepared CD8^+ CD19 CAR-T cell lines with a 4-1BB costimulatory domain from one healthy donor. In the T-cell line, the inventors enriched CAR expressing T cells to >90% purity using the EGFRt-transduction marker. The inventors analyzed cytolytic activity of CD8^+ CAR-T cells in a 4-hour bioluminescence-based cytotoxicity assay using K562 that the inventors had transduced with CD19 as target cells to assess the influence of a panel of Src-kinase inhibitors on the cytolytic function of CAR-T cells. Src-kinase inhibitors were added to the assay medium at the beginning of the assay over a 4-log concentration range.

[2] = tested on: CD8+ T cells expressing a CD19 CAR with 4-1BB costimulation; experiment: Cytokine production and secretion (IFN-γ, IL-2 ELISA), co-culture with K562/CD19; type: cell-based, human; conditions: any given concentration of dexamethasone; pre-treated or during assay only
[3] = tested on: CD8+ T cells expressing a CD19 CAR with 4-1BB costimulation; experiment: CFSE proliferation assay, co-culture with K562/CD19; type: cell-based, human; conditions: dexamethasone, any given concentration; 24 h-pretreatment or at start of co-culture; 72 h
[4] = tested on: CAR-T cells co-expressing the iCasp suicide gene; experiment: Elimination of iCasp+ T cells; type: cell-based, human; conditions: dimerizer (10 nM AP20187) without dasatinib; 24 hours
Procedure: After 24 hours, cells were labeled with anti-CD3 mAB and analyzed by flow cytometry for the presence of iCasp+ T cells.
After 24 hours, cells were labeled with anti-CD3 mAB and analyzed by flow cytometry for the presence of iCasp^+ T cells.

[5] = tested on: CD8+ T cells expressing a ROR1 CAR with 4-1BB costimulatory domain; experiment: IFN-γ ELISA, co-culture with RCH-ACV; type: cell-based, human; conditions: […] nilotinib; 20 h; 1310 pg/ml by untreated CAR-T cells
human SLAMF7 (human) = human SLAMF7 (human) (UniProt Q9NQ25); experiment: cell-based or functional assay
human ROR1 (human) = human ROR1 (human) (UniProt Q01973); experiment: cell-based or functional assay

How did the “specific lysis of target cells” value ([1]; inhibitor 10 nM, 4-hour assay, 82% by untreated CAR-T cells) turn out when `Cc1ccc(-c2nn(C(C)(C)C)c3ncnc(N)c23)cc1` [PP1-inhibitor] was run?
The value was 62.4%.

For `C[C@@H]1C[C@H]2[C@@H]3CCC4=CC(=O)C=C[C@]4(C)[C@@]3(F)[C@@H](O)C[C@]2(C)[C@@]1(O)C(=O)CO` [dexamethasone], which “specific lysis of target cells” value ([1]; dexamethasone added at the beginning of the assay, any of the applied dosages (0.1-100 μM), 91% non-treated) is on record?
The value was > 87%.

And the “specific lysis of target cells” value ([1]; pre-treated for 24 h with dexamethasone, all tested doses, t=10 h, 91% non-treated)?
The value was > 45%.

What about the “residual specific IFN-γ secretion compared to non-treated CAR-T cells” value [2] of the same molecule?
Its value is “more than 43%”.

And the “residual specific IL-2 secretion compared to non-treated CAR-T cells” value [2]?
Its value is “less than 17%”.

What about the “remaining proliferation compared to untreated CAR-T cells” value [3] of the same molecule?
Its value is “less than 26%”.

`CC[C@H](C(=O)N1CCCC[C@H]1C(=O)O[C@H](CCc1ccc(OC)c(OC)c1)c1cccc(OCC(=O)NCC(CNC(=O)COc2cccc([C@@H](CCc3ccc(OC)c(OC)c3)OC(=O)[C@@H]3CCCCN3C(=O)[C@@H](CC)c3cc(OC)c(OC)c(OC)c3)c2)CN(C)C)c1)c1cc(OC)c(OC)c(OC)c1` [dimerizer, AP20187] was tested. Which “percentage of iCasp+ cells” value [4] did it give?
Its value is 45%.

With `Cc1cn(-c2cc(NC(=O)c3ccc(C)c(Nc4nccc(-c5cccnc5)n4)c3)cc(C(F)(F)F)c2)cn1` [nilotinib] as the molecule, how does the “production and secretion of IFN-γ” value [5] read?
The value was 480 pg/mL.

B1: SLAMF7 CAR with 4-1BB costimulatory domain (receptor)
chain: EVQLVESGGGLVQPGGSLRLSCAASGFDFSRYWMSWVRQAPGKGLEWIGEINPDSSTINYAPSLKDKFIISRDNAKNSLYLQMNSLRAEDTAVYYCARPDGNYWYFDVWGQGTLVTVSSGGGGSGGGGSGGGGSDIQMTQSPSSLSASVGDRVTITCKASQDVGIAVAWYQQKPGKVPKLLIYWASTRHTGVPDRFSGSGSGTDFTLTISSLQPEDVATYYCQQYSSYPYTFGQGTKVEIKESKYGPPCPPCPAPPVAGPSVFLFPPKPKDTLMISRTPEVTCVVVDVSQEDPEVQFNWYVDGVEVHNAKTKPREEQFQSTYRVVSVLTVLHQDWLNGKEYKCKVSNKGLPSSIEKTISKAKGQPREPQVYTLPPSQEEMTKNQVSLTCLVKGFYPSDIAVEWESNGQPENNYKTTPPVLDSDGSFFLYSRLTVDKSRWQEGNVFSCSVMHEALHNHYTQKSLSLSLGKMFWVLVVVGGVLACYSLLVTVAFIIFWVKRGRKKLLYIFKQPFMRPVQTTQEEDGCSCRFPEEEEGGCELRVKFSRSADAPAYQQGQNQLYNELNLGRREEYDVLDKRRGRDPEMGGKPRRKNPQEGLYNELQKDKMAEAYSEIGMKGERRRGKGHDGLYQGLSTATKDTYDALHMQALPPR
For B1, which specific lysis of K562/SLAMF7 target cells by CD8+ CAR-T cells without dasatinib, t=6 h (human SLAMF7 (human)) is on record?
Its specific lysis of K562/SLAMF7 target cells by CD8+ CAR-T cells without dasatinib, t=6 h is 63%.

What about the specific lysis of K562/SLAMF7 target cells by CD8+ CAR-T cells without dasatinib, t=12 h (human SLAMF7 (human)) of the same molecule?
The specific lysis of K562/SLAMF7 target cells by CD8+ CAR-T cells without dasatinib, t=12 h was 83%.

B2: SLAMF7 CAR with CD28 costimulatory domain (receptor)
chain: EVQLVESGGGLVQPGGSLRLSCAASGFDFSRYWMSWVRQAPGKGLEWIGEINPDSSTINYAPSLKDKFIISRDNAKNSLYLQMNSLRAEDTAVYYCARPDGNYWYFDVWGQGTLVTVSSGGGGSGGGGSGGGGSDIQMTQSPSSLSASVGDRVTITCKASQDVGIAVAWYQQKPGKVPKLLIYWASTRHTGVPDRFSGSGSGTDFTLTISSLQPEDVATYYCQQYSSYPYTFGQGTKVEIKESKYGPPCPPCPAPPVAGPSVFLFPPKPKDTLMISRTPEVTCVVVDVSQEDPEVQFNWYVDGVEVHNAKTKPREEQFQSTYRVVSVLTVLHQDWLNGKEYKCKVSNKGLPSSIEKTISKAKGQPREPQVYTLPPSQEEMTKNQVSLTCLVKGFYPSDIAVEWESNGQPENNYKTTPPVLDSDGSFFLYSRLTVDKSRWQEGNVFSCSVMHEALHNHYTQKSLSLSLGKMFWVLVVVGGVLACYSLLVTVAFIIFWVRSKRSRGGHSDYMNMTPRRPGPTRKHYQPYAPPRDFAAYRSRVKFSRSADAPAYQQGQNQLYNELNLGRREEYDVLDKRRGRDPEMGGKPRRKNPQEGLYNELQKDKMAEAYSEIGMKGERRRGKGHDGLYQGLSTATKDTYDALHMQALPPR
For B2, which specific lysis of K562/SLAMF7 target cells by CD8+ CAR-T cells without dasatinib, t=6 h (human SLAMF7 (human)) is on record?
Its specific lysis of K562/SLAMF7 target cells by CD8+ CAR-T cells without dasatinib, t=6 h is 67%.

What about the specific lysis of K562/SLAMF7 target cells by CD8+ CAR-T cells without dasatinib, t=12 h (human SLAMF7 (human)) of the same molecule?
Its specific lysis of K562/SLAMF7 target cells by CD8+ CAR-T cells without dasatinib, t=12 h is 85%.

B3: ROR1 CAR with 4-1BB costimulatory domain (receptor)
chain: QVQLVESGGALVQPGGSLTLSCKASGFDFSAYYMSWVRQAPGKGLEWIATIYPSSGKTYYAASVQGRFTISADNAKNTVYLQMNSLTAADTATYFCARDSYADDGALFNIWGQGTLVTVSSGGGGSGGGGSGGGGSQLVLTQSPSVSAALGSSAKITCTLSSAHKTDTIDWYQQLAGQAPRYLMYVQSDGSYEKRSGVPDRFSGSSSGADRYLIISSVQADDEADYYCGADYIGGYVFGGGTQLTVGESKYGPPCPPCPMFWVLVVVGGVLACYSLLVTVAFIIFWVKRGRKKLLYIFKQPFMRPVQTTQEEDGCSCRFPEEEEGGCELRVKFSRSADAPAYQQGQNQLYNELNLGRREEYDVLDKRRGRDPEMGGKPRRKNPQEGLYNELQKDKMAEAYSEIGMKGERRRGKGHDGLYQGLSTATKDTYDALHMQALPPR
How did the IFN-γ in supernatant (ELISA) of co-culture with RCH-ACV target cells, untreated CD8+ CAR-T cells (human ROR1 (human)) turn out when B3 was run?
The IFN-γ in supernatant (ELISA) of co-culture with RCH-ACV target cells, untreated CD8+ CAR-T cells was 1310 pg/mL.

And the proliferation index (CFSE) after 72 h co-culture with RCH-ACV, untreated CD8+ CAR-T cells (human ROR1 (human))?
The proliferation index (CFSE) after 72 h co-culture with RCH-ACV, untreated CD8+ CAR-T cells was 2.84.

What about the specific lysis of K562/ROR1 target cells by CD8+ CAR-T cells without dasatinib, t=10 h (human ROR1 (human)) of the same molecule?
The specific lysis of K562/ROR1 target cells by CD8+ CAR-T cells without dasatinib, t=10 h was 94%.

What about the specific lysis of K562/ROR1 target cells by CD8+ CAR-T cells without dasatinib, up to t=5 h (human ROR1 (human)) of the same molecule?
The specific lysis of K562/ROR1 target cells by CD8+ CAR-T cells without dasatinib, up to t=5 h was 73%.

What about the specific lysis of RCH-ACV target cells by untreated CD8+ CAR-T cells, t=8 hours (human ROR1 (human)) of the same molecule?
The specific lysis of RCH-ACV target cells by untreated CD8+ CAR-T cells, t=8 hours was > 90%.
